{"source": "patent US12037419B2", "about": "(The Feinstein Institutes for Medical Research, priority 2016, dated 2024)", "key": {"[1]": {"test_system": "human monocytes", "assay": "SeaHorse cellular flux assay (OCR, ECAR)", "assay_type": "cell-based", "conditions": "C1q 25 μg ml-1 together with HMGB1 3 μg/ml, 24 h", "procedure": "Cell metabolism analysis using SeaHorse Cellular Flux assay. […] One hour prior to measurement, culture medium was exchanged for assay medium (unbuffered DMEM (Sigma), supplemented with 10 mM Glucose, 1 mM Pyruvate and 2 mM Glutamine for mitochondrial assays, or with 2 mM Glutamine alone for glycolytic assays. Reagents were injected during the measurement to achieve final concentrations of oligomycin (1 μM), carbonyl cyanide p-(trifluoromethoxy) phenylhydrazone (FCCP) ([…]), Rotenone/antimycin A (0.5 μM). Glucose (10 mM), and 2-Deoxy-D glucose (50 mM). Oxygen consumption rate (OCR) and Extracellular acidification rate (ECAR) values were measured using a SeaHorse XfP instrument (SeaHorse bioscience). Measured values were normalized to the number of live cells present in each well as determined by a trypan blue staining by the end of each run. For OCR/ECAR ratio calculations, an average of the last two basal readings was used for both OCR and ECAR."}, "[2]": {"target": "T1, LAIR-1 and RAGE in lipid rafts (Homo sapiens, UniProt Q15109+Q6GTX8)", "T1 construct": "endogenous in cells; host or cells: monocytes", "T1 sequence (Q6GTX8 22-287)": "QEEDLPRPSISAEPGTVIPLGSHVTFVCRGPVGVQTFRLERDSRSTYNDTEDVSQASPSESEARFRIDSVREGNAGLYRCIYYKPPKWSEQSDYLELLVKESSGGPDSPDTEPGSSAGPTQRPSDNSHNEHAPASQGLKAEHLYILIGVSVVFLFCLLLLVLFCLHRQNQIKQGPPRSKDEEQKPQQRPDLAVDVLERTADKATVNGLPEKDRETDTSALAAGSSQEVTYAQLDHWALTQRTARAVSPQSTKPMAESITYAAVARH", "T1 sequence (Q15109 23-404)": "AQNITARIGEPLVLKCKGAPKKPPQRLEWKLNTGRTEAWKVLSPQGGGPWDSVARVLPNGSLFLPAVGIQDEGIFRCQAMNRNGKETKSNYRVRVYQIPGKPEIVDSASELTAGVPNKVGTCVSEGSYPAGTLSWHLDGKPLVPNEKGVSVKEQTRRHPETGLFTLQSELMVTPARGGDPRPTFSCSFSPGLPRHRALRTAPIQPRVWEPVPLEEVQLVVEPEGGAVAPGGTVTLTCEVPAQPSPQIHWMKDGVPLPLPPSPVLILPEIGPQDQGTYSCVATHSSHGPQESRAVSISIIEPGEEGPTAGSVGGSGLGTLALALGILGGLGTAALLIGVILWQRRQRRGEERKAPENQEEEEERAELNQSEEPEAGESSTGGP", "assay": "Lipid raft fractionation and Western blot", "assay_type": "cell-based", "conditions": "in the presence of HMGB1 and C1q", "procedure": "Lipid raft fractionation: Lipid rafts were prepared as described (50). Monocytes (5×10^6) were lysed in 1 ml THE buffer (25 mM Tris, 150 mM NaCl, 5 mM EDTA) containing 1% Triton and incubated for 30 min on ice. Lysates were homogenized with 10 strokes of a dounce homogenizer, mixed with 2 ml of 80% sucrose in TNE buffer, and transferred to a centrifuge tube. Samples were overlaid with 4 ml of 30% sucrose and 2 ml of 5% sucrose in TNE. After centrifugation for 16 h at 180,000 g in a Beckman Coulter SW41Ti rotor, 0.8 ml fractions were collected from the top of the gradient. Each fraction was subjected to slot blot analysis to identify GM1-enriched rafts fraction using FITC-conjugated cholera toxin-B subunit (Sigma). Lipid raft fractions were precipitated with TCA and washed with 70% EtOH, then subjected to slot blot analysis or Western blot."}, "[3]": {"test_system": "allogeneic primary human CD4 T cells", "assay": "Allogeneic mixed lymphocyte reaction", "assay_type": "cell-based", "conditions": "HMGB1 3 μg/ml, C1q 25 μg/ml", "procedure": "Allogeneic CD4 T lymphocytes were isolated from blood using the Naïve CD4+ T cell isolation kit II (Miltenyi Biotec.) following the manufacturer's protocol. Cells were analyzed by flow cytometry (>90%). T cells were labeled with 5 μM Cell Trace Violet cell proliferation kit (Thermo Fisher Scientific), added to mono/macrophages at a density of 2×10^5 cells/well (a 1:2 ratio) in the presence of 1 μg/ml anti-CD3 (OKT3, eBioscience). Control cultures contained medium only or T cells or mono/macrophages alone. After 4 days, cells were stained with FITC-anti-CD4, PerCPCy 5.5-CD14, PE-LAIR-1 and fixable viability dyes (FVD, eBioscience) for 20 min at room temperature and subsequently washed and fixed. Live cells (FVD-negative cells) were then gated on CD4-positive, and cell trace violet was assessed by flow cytometry on a BD LSR II (BD Biosciences). Cell proliferation was analyzed as described (51). The % divided cells was defined as the probability that a cell has divided at least once from the original population. The division index was defined as the average number of cell divisions that a cell in the original population has undergone."}, "[4]": {"target": "T2, HMGB1 (Homo sapiens, UniProt P09429)", "T2 construct": "made in house", "T2 sequence (P09429 1-215)": "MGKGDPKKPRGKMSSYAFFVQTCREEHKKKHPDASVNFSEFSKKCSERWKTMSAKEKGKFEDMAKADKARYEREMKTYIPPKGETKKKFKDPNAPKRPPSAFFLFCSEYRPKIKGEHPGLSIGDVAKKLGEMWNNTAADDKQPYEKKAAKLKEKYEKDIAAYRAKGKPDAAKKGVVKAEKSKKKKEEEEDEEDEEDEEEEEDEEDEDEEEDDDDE", "assay": "SPR assay of HMGB1 and C1q binding, including redox states of HMGB1", "procedure": "Surface Plasmon Resonance analysis (SPR): For real-time binding interaction studies, a BIAcore T200 instrument (GE Healthcare) was used. […] A 1:1 mixture of N-hydroxysuccinimide and N-ethyl-N-(dimethyaminopropyl) carbodiimide was used to activate 2 flow-cells of the CMS chip. […] The analytes were diluted in 1×PBS+0.01% (vol/vol) tween-20 buffer. The analytes were sequentially injected at a flow rate of 30 μl/min for 60 s at 25° C. The KD was dertermined using the BIAcore evaluation software 2.0 (GE Healthcare) supposing a 1:1 binding ratio.\nA 1:1 mixture of N-hyrdoxysuccinimide and N-ethyl-N-(dimethyaminopropyl) carbodiimide was used to activate 2 flow-cells of the CMS chip. […] The analyte (HMGB1) was diluted in 1×HBS-N+0.05% tween-20 buffer (filtered—0.22 um). Three redox states of HMGB1 were sequentially injected at a flow rate of 20 μl/min for 60 s at 25° C., the dissociation time was set for 3 minutes. The concentration was set at 500 nM.\nThe analytes were diluted in 1×HBS-N+0.05% tween-20 buffer (filtered—0.22 um). The analytes were sequentially injected at a flow rate of 20 μl/min for 60 s at 25° C. The dissociation time was set for 3 minutes. The KD for each analyte was determined using the Biacore evaluation software 2.0 supposing a 1:1 binding ratio."}}}
{"substance": "C1q: C1q purified from pooled normal human sera, obtained from Complement Technology", "values": [{"measurement": "HMGB1-induced alteration in cellular metabolism", "setting": "[1]", "value": "prevented the alteration in cellular metabolism"}, {"measurement": "localization of LAIR-1 and RAGE in lipid rafts", "setting": "[2]", "value": "LAIR-1 migrated to lipid rafts where LAIR-1 colocalized with RAGE"}, {"measurement": "stimulation of T cells by monocytes exposed to both HMGB1 and C1q", "setting": "[3]", "value": "poor stimulators of T cells"}, {"measurement": "binding to different redox states of HMGB1", "setting": "[4]; disulfide, all thiol, oxidized HMGB1", "value": "preferentially binding to the disulfide form of HMGB1"}, {"measurement": "Kd", "setting": "[4]; read-out: KD of HMGB1 and C1q binding, 25° C., 1:1 binding ratio supposed", "value": 200, "unit": "nM"}]}
